Assay results: patent US10793872B2, “HPPD variants and methods of use” (Bayer CropScience AG, priority 2012, dated 2020)
Positions count from the first letter of the chain named. Where two headings read alike, the source gives them in different places.

How the values were obtained:
[1] = molecular target: Pseudomonas aeruginosa (strain ATX22717) HPPD Axmi305H, native, SEQ ID NO:57 (Pseudomonas aeruginosa, UniProt Q9I576); assay: HPPD coupling assay, Axmi305H
[2] = molecular target: T1, Pseudomonas fluorescens HPPD variant CO210d10, SEQ ID NO:9 (Pseudomonas sp., UniProt P80064, E334P/G335S/K338T); assay: biochemical; settings: read-out: pI50 (converted)
T1 construct: CO210d10; […]; Ala + His6 directly after the start Met (N); made in house; host or cells: E. coli

[3] = molecular target: T2, Pseudomonas fluorescens HPPD variant CO212f3, SEQ ID NO:10 (Pseudomonas sp., UniProt P80064, A339V/E334G/G335W); assay: biochemical; settings: read-out: pI50 (converted)
T2 construct: CO212f3; […]; Ala + His6 directly after the start Met (N); made in house; host or cells: E. coli

[4] = molecular target: T3, Pseudomonas fluorescens HPPD variant PfHPPDEvo36 (serine for glutamic acid at 335, serine for tryptophan at 336, threonine for lysine at 339, glutamine for alanine at 340 relative to PfG336W), SEQ ID NO:7 (Pseudomonas sp., UniProt P80064, A339Q/E334S/G335S/K338T); assay: biochemical
T3 construct: made in house; host or cells: E. coli (DH5alpha for library screening)

[5] = molecular target: T4, Pseudomonas fluorescens HPPD variant PfHPPDEvo36 (serine for glutamic acid at 335, serine for tryptophan at 336, threonine for lysine at 339, glutamine for alan (Pseudomonas sp., UniProt P80064, A339Q/E334S/G335S/K338T)); format: biochemical
T4 construct: made in house; host or cells: E. coli (DH5alpha for library screening)
Protocol: The theoretical diversity of this library was 640. Screening was carried out as described in Example 3.

[6] = molecular target: T5, Pseudomonas fluorescens HPPD variant C024H11, SEQ ID NO:5 (Pseudomonas sp., UniProt P80064, G335W/P214L); assay: biochemical
T5 construct: C024H11; […]; made in house; host or cells: E. coli (DH5alpha for library screening)

[7] = molecular target: Pseudomonas aeruginosa HPPD Axmi305H (SEQ ID NO:57) variant Axmi305H-Evo41 (Pseudomonas aeruginosa, UniProt Q9I576, A342Q/E337P/G338W/K341A); assay: biochemical
Protocol: This method is called the HGD assay.
The mutants generated by this approach were transformed into B121-DE3* cells and grown to saturation in LB media. […] By this method, active HPPD enzyme will produce a brown pigment after approximately 24 hours of growth on plates.

[8] = molecular target: Pseudomonas fluorescens HPPD variant PfHPPDEvo40, SEQ ID NO:8 (Pseudomonas sp., UniProt P80064, A339E/E334P/G335S); assay: HPPD inhibition, HPLC based assay, PfHPPDEvo40
[9] = molecular target: T2, Pseudomonas fluorescens HPPD variant CO212f3, SEQ ID NO:10; assay: biochemical
[10] = system: Soybean plants; assay: Spray test of soybean plants expressing HPPD for tolerance to tembotrione; format: in vivo; settings: tembotrione (LAUDIS SC) 184 grams/hectare, one week after spraying; for Number of plants rated +: + = completely bleached; for Number of plants rated ++ or +++: slight tolerance or very little effect
Protocol: Soybean plants expressing an HPPD inhibitor tolerant enzyme of the present invention, along with a gene conferring tolerance to glyphosate and a gene conferring tolerance to glufosinate, were tested for tolerance to tembotrione. A DeVries Tracker Sprayer was calibrated prior to each spraying. The chemical formulation used for tembotrione testing was LAUDIS® SC formulation. Spray tests were conducted using 184 grams/hectare; 34.5% TBT. Tolerance was evaluated one week after spraying. A rating of “+” was assigned to plants that were completely bleached in the actively growing tissue. A rating of “++” was assigned to plants having slight tolerance, i.e., the newest plant tissues had some green and are not bleached completely. A rating of “+++” was assigned to plants showing very little effect from spray, i.e., some chlorosis or very slight bleaching was present.

[11] = system: HPPD; settings: reaction stopped after 24 min
Protocol: Kon=K1 equals the association rate constant of the […] and Koff=K−1 equals the rate constant of the enzyme-inhibitor complex dissociation. Ki defines the inhibition constant. For the determination of the specific activity of the enzymes, samples were incubated, and the reaction was stopped after 24 min. The specific activity was estimated by μg of protein.
For the determination of the specific activity of the enzymes, samples were incubated, and the reaction was stopped after 24 min. The specific activity was estimated by μg of protein.
Samples were incubated, and the reaction was stopped after 24 min. The specific activity was estimated by μg of protein.

[12] = system: E. coli cells expressing HPPDs; assay: Plating whole E. coli cells expressing HPPDs on media containing HPPD inhibitors; format: cell-based; settings: whole E. coli cells on plates with 250 uM inhibitor, 18 hours at 37 degrees C
Protocol: Variants were also tested by plating whole E. coli cells expressing HPPDs on media containing various HPPD inhibitors. For these experiments, DH5alpha cells containing HPPD expressing plasmids were grown in LB media+kanamycin until an OD600 nm=0.5 was reached. Serial dilutions of cells were prepared in LB media+kanamycin corresponding to OD600 values of 0.016, 0.008, 0.004, and 0.002. Ten microliters of each dilution were plated in triplicate on plates containing no HPPD inhibitor, 250 uM TBT, 250 uM DKN and 250 uM mesotrione (MST). Plates were incubated for 18 hours at 37 degrees C.

[13] = system: Soybean plants; assay: Field trials of soybean events expressing HPPD, post-emergent HPPD inhibitor application, phytotoxicity; format: in vivo; settings: for events exhibiting less than or equal to 20% average phytotoxicity: T1 events, evaluated after 7 days; for events exhibiting less than or equal to 20% average phytotoxicity / events exhibiting less than or equal to 25% maximum phytotoxicity: post-emergent tembotrione 200 g ai/ha; for events exhibiting less than or equal to 25% maximum phytotoxicity: field trial United States (Minnesota); for events exhibiting less than or equal to 25% maximum phytotoxicity / events exhibiting less than or equal to 18% maximum phytotoxicity: T2; for events exhibiting less than or equal to 18% maximum phytotoxicity: field trial in Argentina, post-emergent isoxaflutole 210 g ai/ha
From the text: The plants were sprayed at the v2-v3 stage with 1× glufosinate. Five days after treatment with glufosinate, the surviving plants were sprayed with 2× tembotrione, 2× mesotrione, or 2× isoxaflutole and evaluated for phytotoxicity after 7 days.

[14] = system: HPPD; settings: Table 14
[15] = system: HPPD
Protocol: For Km and Vmax value determinations the initial rates of the HPPD reaction at different substrate concentrations were determined from plots of HGA formed versus time and fitted to the Michaelis-Menten equation for unireactant enzymes using the ID Business Solutions Ltd. (www.idbs.com) XLfit software suite.
In below given Table 1, “Km” (Michaelis-Menten constant) means the kinetic parameter that is used to characterize an enzyme, and it is defined as the concentration of substrate that permits half maximal rate of the reaction. Km is further defined as the substrate concentration at which the reaction rate reaches half of its maximum value (Vmax/2) where Vmax has the meaning of being the maximum velocity of the reaction.

[16] = PfHPPDEvo36 extract titrated on 250 uM inhibitor
[17] = spectrophotometric method, Table 6

T4 sequence (P80064 other isoform, or with tags, fused parts or gaps with the stated changes): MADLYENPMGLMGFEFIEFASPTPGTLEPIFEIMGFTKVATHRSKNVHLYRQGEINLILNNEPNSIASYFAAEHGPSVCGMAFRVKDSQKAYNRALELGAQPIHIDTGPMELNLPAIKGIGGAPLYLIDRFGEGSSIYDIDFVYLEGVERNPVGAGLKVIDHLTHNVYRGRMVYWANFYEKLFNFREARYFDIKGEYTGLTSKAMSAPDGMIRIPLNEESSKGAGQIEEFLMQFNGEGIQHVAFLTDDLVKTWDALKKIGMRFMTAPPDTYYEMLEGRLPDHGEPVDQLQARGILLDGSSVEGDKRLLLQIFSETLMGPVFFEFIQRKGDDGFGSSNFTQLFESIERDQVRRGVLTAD
T2 sequence (P80064 other isoform, or with tags, fused parts or gaps with the stated changes): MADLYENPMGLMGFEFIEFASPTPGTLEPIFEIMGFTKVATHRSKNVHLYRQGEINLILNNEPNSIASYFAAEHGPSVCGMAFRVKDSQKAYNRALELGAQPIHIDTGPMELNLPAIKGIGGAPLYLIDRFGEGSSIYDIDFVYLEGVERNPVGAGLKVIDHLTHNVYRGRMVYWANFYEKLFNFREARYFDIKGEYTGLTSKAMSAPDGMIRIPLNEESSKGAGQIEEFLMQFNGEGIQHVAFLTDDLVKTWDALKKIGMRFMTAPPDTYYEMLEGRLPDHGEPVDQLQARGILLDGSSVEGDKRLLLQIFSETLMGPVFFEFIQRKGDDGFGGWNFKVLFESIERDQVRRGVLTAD
T5 sequence (P80064 other isoform, or with tags, fused parts or gaps with the stated changes): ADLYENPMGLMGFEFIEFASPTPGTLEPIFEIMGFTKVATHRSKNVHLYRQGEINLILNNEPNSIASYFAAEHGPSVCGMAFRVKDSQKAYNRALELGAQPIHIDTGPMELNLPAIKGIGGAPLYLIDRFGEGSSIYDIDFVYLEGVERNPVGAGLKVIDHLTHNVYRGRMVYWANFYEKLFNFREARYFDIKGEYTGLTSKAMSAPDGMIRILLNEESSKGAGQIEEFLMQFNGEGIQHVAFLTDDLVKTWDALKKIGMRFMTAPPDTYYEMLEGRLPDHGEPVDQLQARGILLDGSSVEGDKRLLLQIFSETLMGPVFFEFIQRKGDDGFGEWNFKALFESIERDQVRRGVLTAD
T1 sequence (P80064 other isoform, or with tags, fused parts or gaps with the stated changes): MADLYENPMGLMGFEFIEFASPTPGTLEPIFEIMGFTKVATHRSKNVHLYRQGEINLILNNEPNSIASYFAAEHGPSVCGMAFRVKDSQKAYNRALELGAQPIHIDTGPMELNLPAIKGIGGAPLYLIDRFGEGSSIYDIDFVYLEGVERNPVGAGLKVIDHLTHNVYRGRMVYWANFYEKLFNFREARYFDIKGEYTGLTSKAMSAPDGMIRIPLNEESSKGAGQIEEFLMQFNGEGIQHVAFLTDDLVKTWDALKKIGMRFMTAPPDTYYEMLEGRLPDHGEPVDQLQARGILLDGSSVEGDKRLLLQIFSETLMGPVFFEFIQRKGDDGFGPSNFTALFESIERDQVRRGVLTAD
Sequence of Pseudomonas aeruginosa HPPD Axmi305H (SEQ ID NO:57) variant Axmi305H-Evo41 (Q9I576 whole entry E337P/G338W/K341A/A342Q): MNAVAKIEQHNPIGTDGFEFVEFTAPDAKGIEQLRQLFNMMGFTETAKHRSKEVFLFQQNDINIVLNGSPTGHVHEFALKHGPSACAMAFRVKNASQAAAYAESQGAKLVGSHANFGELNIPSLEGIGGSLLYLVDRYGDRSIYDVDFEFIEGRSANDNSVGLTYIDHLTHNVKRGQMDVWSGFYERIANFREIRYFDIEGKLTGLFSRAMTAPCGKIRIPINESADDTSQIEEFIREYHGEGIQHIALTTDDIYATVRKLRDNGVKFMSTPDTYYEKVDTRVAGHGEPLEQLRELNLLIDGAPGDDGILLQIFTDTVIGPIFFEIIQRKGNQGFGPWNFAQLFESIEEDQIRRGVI
Sequence of Pseudomonas aeruginosa (strain ATX22717) HPPD Axmi305H, native, SEQ ID NO:57 (Q9I576 whole entry): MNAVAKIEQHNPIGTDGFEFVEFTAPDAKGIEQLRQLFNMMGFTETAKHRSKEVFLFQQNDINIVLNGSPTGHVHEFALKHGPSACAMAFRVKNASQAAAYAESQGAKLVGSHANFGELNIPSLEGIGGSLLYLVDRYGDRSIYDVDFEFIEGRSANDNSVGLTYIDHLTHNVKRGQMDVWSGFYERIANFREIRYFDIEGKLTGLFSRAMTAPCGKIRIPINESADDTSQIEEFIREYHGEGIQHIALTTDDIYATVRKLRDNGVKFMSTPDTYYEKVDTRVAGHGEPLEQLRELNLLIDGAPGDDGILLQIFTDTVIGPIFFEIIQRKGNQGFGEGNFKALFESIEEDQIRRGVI

## CS(=O)(=O)c1ccc(C(=O)C2C(=O)CCCC2=O)c([N+](=O)[O-])c1 [Mesotrione, 2-[4-(methylsulfonyl)-2-nitrobenzoyl]-1,3-cyclohexanedione]
[1]
  IC50: 0.2 µM
[2]
  IC50: 2 µM
[3]
  IC50: 3.98 µM

## CS(=O)(=O)c1cc(C(F)(F)F)ccc1C(=O)C(C#N)C(=O)C1CC1 (centres unmarked) [Diketonitrile, 2-cyano-3-cyclopropyl-1-(2-methylsulphonyl-4-trifluoromethylphenyl)-propane-1,3-dione]
[4]
  IC50: 31.6 µM
[2]
  IC50: 50.1 µM
[5]
  improved tolerance compared to PfG336W: 16 ×
  improved tolerance compared to PfHPPDEvo33: 4 ×
[6]
  IC50: 100 µM
[3]
  IC50: 20 µM
[7]
  IC50: 10 µM

## CS(=O)(=O)c1ccc(C(=O)C2C(=O)CCCC2=O)c(Cl)c1COCC(F)(F)F [Tembotrione, 2-[2-chloro-4-(methylsulfonyl)-3-[(2,2,2,-tri-fluoroethoxy)methyl]benzoyl]-1,3-cyclo-hexanedione]
[8]
  IC50: 10 µM
[9]
  IC50: 15.8 µM
[5]; [16]
  improved tolerance compared to PfG336W: 16 ×
  improved tolerance compared to PfHPPDEvo33: 4 ×
[6]
  IC50: 15.8 µM

B1: PfHPPDEvo40: HPPD variant SEQ ID NO:8 (protein)
chain: MADLYENPMGLMGFEFIEFASPTPGTLEPIFEIMGFTKVATHRSKNVHLYRQGEINLILNNEPNSIASYFAAEHGPSVCGMAFRVKDSQKAYNRALELGAQPIHIDTGPMELNLPAIKGIGGAPLYLIDRFGEGSSIYDIDFVYLEGVERNPVGAGLKVIDHLTHNVYRGRMVYWANFYEKLFNFREARYFDIKGEYTGLTSKAMSAPDGMIRIPLNEESSKGAGQIEEFLMQFNGEGIQHVAFLTDDLVKTWDALKKIGMRFMTAPPDTYYEMLEGRLPDHGEPVDQLQARGILLDGSSVEGDKRLLLQIFSETLMGPVFFEFIQRKGDDGFGPSNFKELFESIERDQVRRGVLTAD
modifications: HPPD mutant - PfHPPDEvo40
[10]
  Percent ++ or +++: 31.4%
  Number of plants rated +: 60
  Number of plants rated ++ or +++: 65
[11]; [17]
  Specific activity: 0.42 Delta Absorbance/24 min/μg pro
[12]
  tolerance to TBT and MST compared to PfG336W: improved tolerance

B2: PfG336W: Pseudomonas fluorescens HPPD mutant, glycine at position 336 replaced by tryptophan, SEQ ID NO:2 (protein)
chain: B1 chain with P335E, S336W, E340A
modifications: HPPD mutant - PfG336W
[10]
  Percent ++ or +++: 7.12%
  Number of plants rated +: 811
  Number of plants rated ++ or +++: 160
[11]; Table 1
  Specific activity: 0.40 ΔE/24 min μg Protein
[11]; [17]
  Specific activity: 0.4 Delta Absorbance/24 min/μg pro
[13]
  events exhibiting less than or equal to 20% average phytotoxicity: 0 out of 18
  events exhibiting less than or equal to 25% maximum phytotoxicity: 1 out of 11
  events exhibiting less than or equal to 18% maximum phytotoxicity: 1 out of 3

B3: PfHPPDEvo41: HPPD variant SEQ ID NO:16 (protein)
chain: B1 chain with S336W, K339A, E340Q
modifications: HPPD mutant - PfHPPDEvo41
[14]
  Km: 336 µM
[15]; Table 9, same values as Table 5
  Km: 336 µM
[15]; read-out: HPP Km, substrate HPP, Table 5
  Km: 336 µM
[15]; substrate HPP, Table 5
  HPP Kcat: 1.1 s⁻¹
[10]
  Percent ++ or +++: 32.75%
  Number of plants rated +: 412
  Number of plants rated ++ or +++: 279
[11]; [17]
  Specific activity: 0.44 Delta Absorbance/24 min/μg pro
[13]
  events exhibiting less than or equal to 20% average phytotoxicity: Nine out of 18
  events exhibiting less than or equal to 25% maximum phytotoxicity: 7 out of 7
  events exhibiting less than or equal to 18% maximum phytotoxicity: 5 out of 10
[12]
  tolerance to TBT and MST compared to PfG336W: improved tolerance

B4: PfHPPDEvo36: HPPD variant SEQ ID NO:7; 335 serine, 336 serine, 339 threonine, 340 glutamine relative to PfG336W (protein)
chain: B1 chain with P335S, K339T, E340Q
modifications: HPPD mutant - PfHPPDEvo36
[10]
  Percent ++ or +++: 20.45%
  Number of plants rated +: 47
  Number of plants rated ++ or +++: 18
[11]; [17]
  Specific activity: 0.82 Delta Absorbance/24 min/μg pro
